The chains are these.
B1: 15A1 Fab (Fab, V domains shown)
VH: QVQLVQSGAEVKKPGASVKVSCKASGYTFTSYYMHWVRQAPGQGLEWMGIINPSGGSTSYAQKFQGRVTMTRDTSTSTVYMELSSLRSEDTAVYYCARNYYIGVVTFDYWGQGTLVTVSS
VL: QAVVTQEPSLTVSPGGTVTLTCGSSTGAVTTSNYANWVQEKPGQAFRGLIGGTNKRAPGTPARFSGSLLGGKAALTLSGAQPEDEAEYYCALWYSNLWVFGGGTKLTVL
B2: 16A3 Fab (Fab, V domains shown)
VH: B1 VH with I102A, V105T, T106P
VL: B1 VL
B3: 19H3 Fab (Fab, V domains shown)
VH: B1 VH with N99T, Y100G, Y101W, I102S, G103R, V104W, V105G, T106Y, F107M
VL: B1 VL
B4: 15H7 Fab (Fab, V domains shown)
VH: B1 VH with I102L, G103F, V104S, V105T, T106S
VL: B1 VL
B5: 21D1 Fab (Fab, V domains shown)
VH: B1 VH with I102V, V105S, T106P
VL: B1 VL
B6: 19E5 Fab (Fab, V domains shown)
VH: B1 VH with N99G, Y100E, Y101W, I102R, G103R, V104Y, V105T, T106S
VL: B1 VL
B7: 19A4 Fab (Fab, V domains shown)
VH: B1 VH with N99G, Y100G, Y101W, G103R, V104W, V105E, T106H
VL: B1 VL
B8: 18D3 IgG (antibody, V domains shown)
VH: QVQLVQSGAEVKKPGASVKVSCKASGYTFTSYYMHWVRQAPGQGLEWMGIINPSGGSTSYAQKFQGRVTMTRDTSTSTVYMELSSLRSEDTAVYYCARNYYTGGSSAFDYWGQGTLVTVS
VL: B1 VL
notes: human IgG1
B9: 21D1 IgG (antibody, V domains shown)
VH: B1 VH with I102V, V105S, T106P
VL: B1 VL
notes: human IgG1
B10: 15H7 IgG (antibody, V domains shown)
VH: B1 VH with I102L, G103F, V104S, V105T, T106S
VL: B1 VL
notes: human IgG1
B11: 16A3 IgG (antibody, V domains shown)
VH: B1 VH with I102A, V105T, T106P
VL: B1 VL
notes: human IgG1

Binding result and Kd data for 11 molecules are collected here from patent US20210087291A1 (Hoffmann-La Roche, published 2021).

In general, Kd refers to a measure of binding affinity in units of concentration.

Substitutions are numbered along the chain they refer to.

The first test deals with T1, human FolR3 ECD-AcTev-Fcknob-Avi tag + Fc hole, biotinylated monomeric Fc fusion (human, UniProt P0DOX5 223-449 = IgG part).
T1 construct: also called huFolR3; FolR3-Fc
Put plainly: SPR ProteOn, Fab analyte.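 Note: recombinant antigens immobilized, purified Fab two-fold dilutions injected in parallel channels, 200 s association and 600 s dissociation, buffer-only channel as in-line reference.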
Procedure: (§1) Immobilization of antigens (ligand): Recombinant antigens were diluted with PBST (10 mM phosphate, 150 mM sodium chloride pH 7.4, 0.005% Tween 20) to 10 μg/ml, then injected at 30 μl/minute in vertical orientation.
(§2) Injection of analytes: For ‘one-shot kinetics’ measurements, injection direction was changed to horizontal orientation, two-fold dilution series of purified Fab (varying concentration ranges) were injected simultaneously along separate channels 1-5, with association times of 200 s, and dissociation times of 600 s. Buffer (PBST) was injected along the sixth channel to provide an “in-line” blank for referencing. Association rate constants (kₒₙ) and dissociation rate constants (koff) were calculated using a simple one-to-one Langmuir binding model in ProteOn Manager v3.1 software by simultaneously fitting the association and dissociation sensorgrams. The equilibrium dissociation constant (KD) was calculated as the ratio koff/kₒₙ.
B1: the binding result is “no binding”.
As for B2, the binding result is reported as “no binding”.
Consider B3, for which the binding result is “no binding”.
As to B4, the binding result is “no binding”.
The same measure, in the same setting: the result for B5 reads “no binding”.

The target in another test is T2, human FolR2 ECD-AcTev-Fcknob-Avi tag + Fc hole, biotinylated monomeric Fc fusion (human, UniProt P0DOX5 223-449 = IgG part).
T2 construct: also called huFolR2; FolR2-Fc
Put plainly: SPR ProteOn, Fab analyte.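 Note: recombinant antigens immobilized, purified Fab two-fold dilutions injected in parallel channels, 200 s association and 600 s dissociation, buffer-only channel as in-line reference.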
Procedure: as §1, §2
Consider B1, for which the binding result is reported as “no binding”.
The same measure, in the same setting: the result for B2 reads “no binding”; that for B3, “no binding”.
As to B4, the binding result was “no binding”.
Turning to B5, the binding result was “no binding”.

In another test the target is T3, cynomolgus FolR1 ECD-AcTev-Fcknob-Avi tag + Fc hole, biotinylated monomeric Fc fusion (cynomolgus, UniProt P0DOX5 223-449 = IgG part).
T3 construct: also called cyFolR1; cyno FolR1-Fc
Put plainly: SPR ProteOn, Fab analyte.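 Note: recombinant antigens immobilized, purified Fab two-fold dilutions injected in parallel channels, 200 s association and 600 s dissociation, buffer-only channel as in-line reference.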
Procedure: as §1, §2
Turning to B1, the Kd was found to be 0.0173 µM.
On the same count and under the same terms, the result for B2 reads 0.018 µM.
Regarding B3, the binding result is recorded as “no binding”.
As for B6, the Kd turned out to be 0.276 µM.
On to B7, for which the Kd worked out at 4.25 µM.
In the case of B4, the Kd was determined as 0.0725 µM.
Same read-out and setting: the result for B5 reads 0.0321 µM.

The next test concerns the target T4, human FolR1 ECD-AcTev-Fcknob-Avi tag + Fc hole, biotinylated monomeric Fc fusion (human, UniProt P0DOX5 223-449 = IgG part).
T4 construct: also called huFolR1; huFolR1-Fc
Put plainly: SPR ProteOn, Fab analyte.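 Note: recombinant antigens immobilized, purified Fab two-fold dilutions injected in parallel channels, 200 s association and 600 s dissociation, buffer-only channel as in-line reference.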
Procedure: as §1, §2
As for B1, the dissociation constant Kd worked out at 0.0309 µM.
For B2, the Kd was 0.0217 µM.
For B3, the binding result was “no binding”.
With B7, the equilibrium dissociation constant (Kd) was determined as 2.05 µM.
Consider B5, for which the Kd turned out to be 0.0626 µM.

The target in another test is T1, human FolR3 ECD-AcTev-Fcknob-Avi tag + …. Put plainly: SPR, IgG single injection. (In SPR one partner is held on a chip, and binding of the other changes the refractive index at the surface.)
Regarding B8, the binding result is “no binding (tested: 500 nM)”.
With B9, the binding result was “no binding (tested: 500 nM)”.
Take B10: the binding result is listed as “no binding (tested: 500 nM)”.
Turning to B11, the binding result was “no binding (tested: 500 nM)”.

A further test has as its target T2, human FolR2 ECD-AcTev-Fcknob-Avi tag + …. Put plainly: SPR, IgG single injection.
B8: the binding result is “no binding (tested: 500 nM)”.
Turning to B9, the binding result is listed as “no binding (tested: 500 nM)”.
In the case of B10, the binding result was “no binding (tested: 500 nM)”.
For B11, the binding result is given as “no binding (tested: 500 nM)”.
